Source: patent US20150368642A1, “LNA OLIGONUCLEOTIDE CARBOHYDRATE CONJUGATES” (HOFFMANN-LA ROCHE INC., priority 2013, published 2015)
Strand notation (5' to 3'): a small letter for the sugar, then the base; units joined by * are phosphorothioate-linked, units joined directly phosphodiester-linked; [ ] holds rarer units or linkages, { } end groups; capitals alone tell only the bases. l = locked nucleic acid (LNA); [5mC] = 5-methylcytosine; d = 2'-deoxy (DNA)

Experiments:
[1] = In vitro cleavage in liver homogenate; assay type: in vitro ADME, NMRI mice; conditions: 200 μg/g tissue, 24 hours at 37°
Procedure: (§1) Liver, kidney and serum (see table below) were spiked with oligonucleotide SEQ ID NO 21 to concentrations of 200 μg/g tissue. Liver and kidney samples collected from NMRI mice were homogenized in a homogenisation buffer (0.5% Igepal CA-630, 25 mM Tris pH 8.0, 100 mM NaCl, pH 8.0 (adjusted with 1 N NaOH). The homogenates were incubated for 24 hours at 37° and thereafter the homogenates were extracted with phenol-chloroform. The content of cleaved and non cleaved oligonucleotide in the extract from liver and kidney and from the serum were determined against a standard using the above HPLC method.

[2] = In vitro cleavage in kidney homogenate; assay type: in vitro ADME, NMRI mice; conditions: 200 μg/g tissue, 24 hours at 37°
Procedure: as §1

[3] = In vitro cleavage in serum; assay type: in vitro ADME; conditions: 200 μg/g
Procedure: as §1

[4] = tested on: HBV; test: HBV mouse hydrodynamic tailvein injection model, HBV DNA in liver by qPCR; assay type: in vivo, Balb/C mouse; conditions: Balb/C mice, single injection 24 hours before hydrodynamic injection; SEQ ID 55 2 and 10 mg/kg, SEQ ID 56 2.7 and 13.5 mg/kg
From the text: An LNA oligomer can be assessed for antiviral effect in vivo in a mouse strain, such as BALB/c or C57B/6, where HBV replication can be established by hydrodynamic tail vein injection of a plasmid, such as pAAV/HBV1.3, expressing a partially repeated HBV pregenomic RNA (J Virol. 1995 October; 69(10):6158-69) or pAAV2/HBV1.3, a derivative thereof (WuxiAppTech, Wuxi, China). The injection of the plasmid in a high volume of saline, equal to 8-12% of the body mass of the mouse, will result in the accumulation and expression of the viral pregenomic RNA in the liver, subsequently leading to the establishment of an acute HBV infection. Treatment of the animals with an LNA oligomer can be initiated 1 or more days before the injection of the plasmid or 1 day after the injection of the plasmid. Delivery of the LNA oligomer in saline can be done by intravenous or subcutaneous injection.
An in vivo experiment was performed on SEQ ID 55 and SEQ ID 56, the latter being a GalNAC conjugate of the former (conj1a). The LNA compounds were tested for efficacy against HBV in the mouse hydrodynamic tailvein injection model using the Balb/C mouse strain. LNA compounds were be tested at equimolar doses; 2 and 10 mg/kg, single injection (SEQ ID 55) and at 2.7 and 13.5 mg/kg, single injection (SEQ ID 56). The LNA anti-HBV compounds were compared to saline and to entecavir, an inhibitor of the HBV reverse transcriptase. Entecavir was dosed p.o. daily at 0.1 mg/kg. Where applicable, the animals were treated with the LNA compound 24 hours before the hydrodynamic injection. Entecavir was given in daily doses as described starting 24 hours after the hydrodynamic injection. […] All the animals were monitored on a daily basis for body weight changes and clinical signs for the duration of the in vivo study. […] All the blood samples were collected in tubes containing heparin sodium The portion of the left lobe of each liver was used to determine the level of HBV DNA replication by qPCR, as copies per unit weight of liver in which the quantity of total HBV DNA level is subtracted by the quantity of pAAV2/HBV DNA level. […]

[5] = tested on: HBV; conditions: WO2011/47312; cited from earlier work

Substance | % cleaved after 24 hrs liver homogenate [1] | % cleaved after 24 hrs kidney homogenate [2] | % cleaved after 24 hours in serum [3] | effect on replication of HBV / HBV DNA level in the liver [4] | effectiveness against HBV as highlighted in the art [5]
21 (TCAGCATTGGTATTCA; LNA gapmer conjugate, pattern not given here) [compound 21] | 83% | 95% | 0% |  | 
SEQ ID NO 55: 5′-GsAsGsGscsastsasgscsasgs^mCsAsGsG-3′; HBV LNA gapmer disclosed in WO2011/47312 (lG*lA*lG*lG*dC*dA*dT*dA*dG*dC*dA*dG*l[5mC]*lA*lG*lG) [reference compound] |  |  |  | little effect on the replication of HBV in the liver | particularly effective against HBV
